First the molecules themselves.
B1: GFP-GST-Rad54 (enzyme, Saccharomyces cerevisiae, UniProt P32863 1-898, looked up)
chain: MARRRLPDRPPNGIGAGERPRLVPRPINVQDSVNRLTKPFRVPYKNTHIPPAAGRIATGSDNIVGGRSLRKRSATVCYSGLDINADEAEYNSQDISFSQLTKRRKDALSAQRLAKDPTRLSHIQYTLRRSFTVPIKGYVQRHSLPLTLGMKKKITPEPRPLHDPTDEFAIVLYDPSVDGEMIVHDTSMDNKEEESKKMIKSTQEKDNINKEKNSQEERPTQRIGRHPALMTNGVRNKPLRELLGDSENSAENKKKFASVPVVIDPKLAKILRPHQVEGVRFLYRCVTGLVMKDYLEAEAFNTSSEDPLKSDEKALTESQKTEQNNRGAYGCIMADEMGLGKTLQCIALMWTLLRQGPQGKRLIDKCIIVCPSSLVNNWANELIKWLGPNTLTPLAVDGKKSSMGGGNTTVSQAIHAWAQAQGRNIVKPVLIISYETLRRNVDQLKNCNVGLMLADEGHRLKNGDSLTFTALDSISCPRRVILSGTPIQNDLSEYFALLSFSNPGLLGSRAEFRKNFENPILRGRDADATDKEITKGEAQLQKLSTIVSKFIIRRTNDILAKYLPCKYEHVIFVNLKPLQNELYNKLIKSREVKKVVKGVGGSQPLRAIGILKKLCNHPNLLNFEDEFDDEDDLELPDDYNMPGSKARDVQTKYSAKFSILERFLHKIKTESDDKIVLISNYTQTLDLIEKMCRYKHYSAVRLDGTMSINKRQKLVDRFNDPEGQEFIFLLSSKAGGCGINLIGANRLILMDPDWNPAADQQALARVWRDGQKKDCFIYRFISTGTIEEKIFQRQSMKMSLSSCVVDAKEDVERLFSSDNLRQLFQKNENTICETHETYHCKRCNAQGKQLKRAPAMLYGDATTWNHLNHDALEKTNDHLLKNEHHYNDISFAFQYISH
B2: GFP-GST-Rad54 S816AS817A (enzyme, Saccharomyces cerevisiae, UniProt P32863 1-898, looked up)
chain: MARRRLPDRPPNGIGAGERPRLVPRPINVQDSVNRLTKPFRVPYKNTHIPPAAGRIATGSDNIVGGRSLRKRSATVCYSGLDINADEAEYNSQDISFSQLTKRRKDALSAQRLAKDPTRLSHIQYTLRRSFTVPIKGYVQRHSLPLTLGMKKKITPEPRPLHDPTDEFAIVLYDPSVDGEMIVHDTSMDNKEEESKKMIKSTQEKDNINKEKNSQEERPTQRIGRHPALMTNGVRNKPLRELLGDSENSAENKKKFASVPVVIDPKLAKILRPHQVEGVRFLYRCVTGLVMKDYLEAEAFNTSSEDPLKSDEKALTESQKTEQNNRGAYGCIMADEMGLGKTLQCIALMWTLLRQGPQGKRLIDKCIIVCPSSLVNNWANELIKWLGPNTLTPLAVDGKKSSMGGGNTTVSQAIHAWAQAQGRNIVKPVLIISYETLRRNVDQLKNCNVGLMLADEGHRLKNGDSLTFTALDSISCPRRVILSGTPIQNDLSEYFALLSFSNPGLLGSRAEFRKNFENPILRGRDADATDKEITKGEAQLQKLSTIVSKFIIRRTNDILAKYLPCKYEHVIFVNLKPLQNELYNKLIKSREVKKVVKGVGGSQPLRAIGILKKLCNHPNLLNFEDEFDDEDDLELPDDYNMPGSKARDVQTKYSAKFSILERFLHKIKTESDDKIVLISNYTQTLDLIEKMCRYKHYSAVRLDGTMSINKRQKLVDRFNDPEGQEFIFLLSSKAGGCGINLIGANRLILMDPDWNPAADQQALARVWRDGQKKDCFIYRFISTGTIEEKIFQRQSMKMSLSSCVVDAKEDVERLFAADNLRQLFQKNENTICETHETYHCKRCNAQGKQLKRAPAMLYGDATTWNHLNHDALEKTNDHLLKNEHHYNDISFAFQYISH
B3: Rad51 (natural protein, UniProt P25454 1-400, looked up)
chain: MSQVQEQHISESQLQYGNGSLMSTVPADLSQSVVDGNGNGSSEDIEATNGSGDGGGLQEQAEAQGEMEDEAYDEAALGSFVPIEKLQVNGITMADVKKLRESGLHTAEAVAYAPRKDLLEIKGISEAKADKLLNEAARLVPMGFVTAADFHMRRSELICLTTGSKNLDTLLGGGVETGSITELFGEFRTGKSQLCHTLAVTCQIPLDIGGGEGKCLYIDTEGTFRPVRLVSIAQRFGLDPDDALNNVAYARAYNADHQLRLLDAAAQMMSESRFSLIVVDSVMALYRTDFSGRGELSARQMHLAKFMRALQRLADQFGVAVVVTNQVVAQVDGGMAFNPDPKKPIGGNIMAHSSTTRLGFKKGKGCQRLCKVVDSPCLPEAECVFAIYEDGVGDPREEDE

Assay in all cases: single-molecule DNA curtains
Test [1] addresses B3.
Test [2] has as its target T1, GFP-GST-Rad54 S816DS817D (Saccharomyces cerevisiae, UniProt P32863 1-898, S816D | S817D).
T1 sequence (looked up): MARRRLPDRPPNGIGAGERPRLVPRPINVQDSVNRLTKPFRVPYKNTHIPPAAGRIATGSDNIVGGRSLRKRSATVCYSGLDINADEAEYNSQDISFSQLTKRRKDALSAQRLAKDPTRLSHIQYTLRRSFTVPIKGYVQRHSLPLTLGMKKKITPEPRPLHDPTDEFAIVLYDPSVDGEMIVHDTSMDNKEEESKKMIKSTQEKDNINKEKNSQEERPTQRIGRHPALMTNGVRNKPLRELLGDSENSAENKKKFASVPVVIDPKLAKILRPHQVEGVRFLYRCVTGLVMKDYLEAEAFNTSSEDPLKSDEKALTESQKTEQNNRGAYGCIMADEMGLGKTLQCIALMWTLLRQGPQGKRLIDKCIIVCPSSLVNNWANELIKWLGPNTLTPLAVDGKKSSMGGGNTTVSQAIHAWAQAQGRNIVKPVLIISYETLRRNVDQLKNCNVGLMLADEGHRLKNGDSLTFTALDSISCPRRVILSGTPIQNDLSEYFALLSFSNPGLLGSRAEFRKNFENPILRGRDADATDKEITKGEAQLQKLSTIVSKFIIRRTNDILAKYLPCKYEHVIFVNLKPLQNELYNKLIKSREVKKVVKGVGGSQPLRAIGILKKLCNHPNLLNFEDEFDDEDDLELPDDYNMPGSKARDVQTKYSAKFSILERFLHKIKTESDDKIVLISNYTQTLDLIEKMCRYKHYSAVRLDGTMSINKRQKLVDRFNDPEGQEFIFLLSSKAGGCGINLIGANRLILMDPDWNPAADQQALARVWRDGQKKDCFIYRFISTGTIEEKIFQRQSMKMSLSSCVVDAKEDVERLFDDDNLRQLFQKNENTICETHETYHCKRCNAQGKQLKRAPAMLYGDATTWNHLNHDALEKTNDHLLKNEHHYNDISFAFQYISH

Test [3] addresses B2.
The target in test [4] is B1.

In the case of B1, the “fold change of Rad54 molecules per PSC, flow off against constant flow” value in test [1] worked out at 2 fold. With B2, the “fold change of Rad54 molecules per PSC, flow off against constant flow” value in test [1] stood at 2 fold.

Take B3: the binding result in test [2], in test [3] and in test [4] was “binds” in each case.
